Where “and” joins values, the source holds several entries; their conditions need not be identical. Equal entries are not always repeated.
Assays:
Mce3R R53A = target: T1, Mce3R R53A (Mycobacterium tuberculosis H37Rv, UniProt P95251 1-406, R53A); experiment: EMSA; 0-128 nM; high-affinity binding lost; details: protein: recombinant; tags: MBP-His6 N-terminal, removed with TEV (same protocol as WT); chain copies: 2; label: 5'-Cy3 (forward strand); blunt
T1 sequence: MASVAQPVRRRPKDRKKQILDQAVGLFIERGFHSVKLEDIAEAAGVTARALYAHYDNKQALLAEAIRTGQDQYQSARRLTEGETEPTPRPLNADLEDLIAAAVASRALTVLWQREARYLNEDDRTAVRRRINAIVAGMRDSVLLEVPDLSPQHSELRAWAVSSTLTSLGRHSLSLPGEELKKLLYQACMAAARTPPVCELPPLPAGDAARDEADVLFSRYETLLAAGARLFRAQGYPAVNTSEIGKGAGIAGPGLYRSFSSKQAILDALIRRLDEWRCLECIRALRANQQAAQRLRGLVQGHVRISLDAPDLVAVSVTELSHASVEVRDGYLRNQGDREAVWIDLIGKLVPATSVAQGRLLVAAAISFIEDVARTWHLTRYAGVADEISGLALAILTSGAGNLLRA

SEC = target: the molecule itself; experiment: SEC
[1] = target: the molecule itself; experiment: SEC; M1 on Superdex 200 HiLoad 16:60, Buffer E (20 mM Tris-HCl pH 7.5, 0.2 M NaCl); two peaks (Figure S1B)

B1: Probe A (dsDNA)
DNA 1: GCCCCGCGCTATAGGATACTAGCAAGATACATCATAGCCAATATATGCCAGTTTGCATTGCTATTTACCGATCAGTTGTCCAAGCAATCGCGTATTGGCTATGGACATCAGCGGTTCTGCCGC
DNA 2: GCGGCAGAACCGCTGATGTCCATAGCCAATACGCGATTGCTTGGACAACTGATCGGTAAATAGCAATGCAAACTGGCATATATTGGCTATGATGTATCTTGCTAGTATCCTATAGCGCGGGGC
Mce3R R53A
  binding result: no binding

B2: Mce3R R53A variant (natural protein)
chain: T1 sequence
notes: not shown: MBP, N-terminal, cleaved; His6, N-terminal, cleaved
SEC
  stoichiometry N: 2 and 4

B3: M1, N-terminal TFR segment of Mce3R (amino acids 13-193) (domain or fragment)
chain: KDRKKQILDQAVGLFIERGFHSVKLEDIAEAAGVTARALYRHYDNKQALLAEAIRTGQDQYQSARRLTEGETEPTPRPLNADLEDLIAAAVASRALTVLWQREARYLNEDDRTAVRRRINAIVAGMRDSVLLEVPDLSPQHSELRAWAVSSTLTSLGRHSLSLPGEELKKLLYQACMAAAR
notes: Mce3R (Rv1963c), Mycobacterium tuberculosis H37Rv, amino acids 13-193 (M1); calculated monomer MW 20.2 kDa; also called M1 homotetramer; M1 homodimer
[1]
  stoichiometry N: 4 and 2

From article PMC11667970, “Mycobacterium tuberculosis Mce3R TetR-like Repressor Forms an Asymmetric Four-Helix Bundle and Binds a Nonpalindrome Sequence†” (ACS Chemical Biology, 2024)
